According to US20040059519A1:
“And” between values parts separate entries of the source, which are not always exact repeats. Identical values can stand only once. Blank lines part the entries; values can stand above or below the substance they belong to.

How the values were obtained:
[1] = biological target: Human chorionic gonadotropin (human) (UniProt P01215); assay: multiplex sandwich, MAB602 capture beads; hCG 500 ng/mL, no wash
Alpha fetoprotein [2] = biological target: Alpha fetoprotein (UniProt P02771); assay: anti-AFP capture beads, flow cytometry; AFP 0.0 ng/mL, anti-hCG probe
Sequence of UniProt P02771 (P02771 19-609 limits assumed): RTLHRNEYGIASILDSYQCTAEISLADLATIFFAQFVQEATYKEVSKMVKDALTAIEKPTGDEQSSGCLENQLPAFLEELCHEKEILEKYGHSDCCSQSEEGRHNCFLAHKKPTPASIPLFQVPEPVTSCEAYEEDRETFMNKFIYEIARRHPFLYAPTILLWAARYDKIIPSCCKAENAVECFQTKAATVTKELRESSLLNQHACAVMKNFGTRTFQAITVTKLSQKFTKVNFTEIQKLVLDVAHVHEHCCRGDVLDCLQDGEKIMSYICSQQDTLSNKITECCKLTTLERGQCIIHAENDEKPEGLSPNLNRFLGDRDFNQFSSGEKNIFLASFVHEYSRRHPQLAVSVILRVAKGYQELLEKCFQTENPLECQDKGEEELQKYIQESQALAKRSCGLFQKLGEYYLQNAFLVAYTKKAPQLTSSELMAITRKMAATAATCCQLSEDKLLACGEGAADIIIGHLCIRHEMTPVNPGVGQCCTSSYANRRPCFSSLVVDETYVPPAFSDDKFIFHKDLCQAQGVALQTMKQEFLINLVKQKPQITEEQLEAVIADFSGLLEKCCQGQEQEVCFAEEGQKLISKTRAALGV

[3] = biological target: Human chorionic gonadotropin (human) (UniProt P01215); assay: MAB602 capture beads, flow cytometry; hCG 100.0 ng/mL, anti-hCG probe
[4] = biological target: Human chorionic gonadotropin (human) (UniProt P01215); assay: multiplex sandwich, MAB602 capture beads; hCG 2 ng/mL, no wash
[5] = biological target: Human chorionic gonadotropin (human) (UniProt P01215); assay: multiplex sandwich, MAB602 capture beads; hCG 62 ng/mL, washed
Alpha fetoprotein [6] = biological target: Alpha fetoprotein (UniProt P02771); assay: anti-AFP capture beads, flow cytometry; AFP 0.1 ng/mL, anti-hCG probe
[7] = biological target: Human chorionic gonadotropin (human) (UniProt P01215); assay: multiplex sandwich, MAB602 capture beads; hCG 1 ng/mL, washed
[8] = biological target: Human chorionic gonadotropin (human) (UniProt P01215); assay: multiplex no-wash sandwich, MAB602 beads; serum Level 3D, hCG 218 mU/mL
[9] = biological target: Human chorionic gonadotropin (human) (UniProt P01215); assay: bead sandwich, flow cytometry; capture A3 beads, hCG 20.0 ug/mL
[10] = biological target: Human chorionic gonadotropin (human) (UniProt P01215); assay: multiplex sandwich, MAB602 capture beads; hCG 4 ng/mL, washed
[11] = biological target: Human chorionic gonadotropin (human) (UniProt P01215); assay: multiplex sandwich, MAB602 capture beads; hCG 8 ng/mL, no wash
[12] = biological target: Human chorionic gonadotropin (human) (UniProt P01215); assay: sandwich, MAB602 capture beads, flow cytometry; hCG 2 ng/mL
[13] = biological target: Human chorionic gonadotropin (human) (UniProt P01215); assay: multiplex no-wash sandwich, MAB602 beads; Unknown serum, hCG computed 218.55 mU/mL
[14] = biological target: Human chorionic gonadotropin (human) (UniProt P01215); assay: bead sandwich, flow cytometry; capture A1 beads, no hCG (background)
[15] = biological target: Human chorionic gonadotropin (human) (UniProt P01215); assay: sandwich, MAB602 capture beads, flow cytometry; hCG 200 ng/mL
[16] = biological target: Human chorionic gonadotropin (human) (UniProt P01215); assay: multiplex sandwich, MAB602 capture beads; hCG 125 ng/mL, washed
[17] = biological target: Human chorionic gonadotropin (human) (UniProt P01215); assay: MAB602 capture beads, flow cytometry; hCG 0.0 ng/mL, anti-AFP probe
Alpha fetoprotein [18] = biological target: Alpha fetoprotein (UniProt P02771); assay: multiplex sandwich, S10473 capture beads; AFP 1000 ng/mL, washed
[19] = biological target: Human chorionic gonadotropin (human) (UniProt P01215); assay: MAB602 capture beads, flow cytometry; hCG 1000.0 ng/mL, anti-AFP probe
Alpha fetoprotein [20] = biological target: Alpha fetoprotein (UniProt P02771); assay: multiplex no-wash sandwich, S10473 beads; serum Level 1, AFP 10.7 U/mL
Alpha fetoprotein [21] = biological target: Alpha fetoprotein (UniProt P02771); assay: multiplex sandwich, S10473 capture beads; AFP 1 ng/mL, washed
Alpha fetoprotein [22] = biological target: Alpha fetoprotein (UniProt P02771); assay: multiplex no-wash sandwich, S10473 beads; serum Level 2, AFP 53.8 U/mL
Peptide 8 …-biotin [23] = assay: multiplex peptide beads, flow cytometry; no free biotin
Peptide 7 …-biotin [24] = assay: as above
Peptide 9 …-biotin [25] = assay: as above
Peptide 1 …-biotin [26] = assay: as above
Peptide 2 …-biotin [27] = assay: as above
Peptide 4 …-biotin [28] = assay: as above
Peptide 6 …-biotin [29] = assay: as above
[30] = biological target: Peptide 5 …-biotin (human); assay: as above
Peptide 3 …-biotin [31] = assay: as above
[32] = biological target: Neutravidin (deglycosylated avidin) (UniProt P02701); assay: single-analyte, Neutravidin bead 70/50 without peptide, flow cytometry
Sequence of UniProt P02701 (P02701 25-152 limits assumed): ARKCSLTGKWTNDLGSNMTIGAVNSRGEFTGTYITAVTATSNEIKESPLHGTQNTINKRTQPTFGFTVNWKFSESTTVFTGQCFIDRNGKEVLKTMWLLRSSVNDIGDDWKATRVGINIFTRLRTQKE

Peptide 8 …-biotin [33] = assay: multiplex peptide beads, flow cytometry; beads pre-incubated with free biotin 10 ug/mL
Peptide 7 …-biotin [34] = assay: as above
Peptide 9 …-biotin [35] = assay: as above
Peptide 1 …-biotin [36] = assay: as above
Peptide 2 …-biotin [37] = assay: as above
Peptide 4 …-biotin [38] = assay: as above
Peptide 6 …-biotin [39] = assay: as above
[40] = biological target: Peptide 5 …-biotin (human); assay: as above
Peptide 3 …-biotin [41] = assay: as above
[42] = biological target: Neutravidin (deglycosylated avidin) (UniProt P02701); assay: single-analyte, Neutravidin bead 40/50 without peptide, flow cytometry
[43] = biological target: Neutravidin (deglycosylated avidin) (UniProt P02701); assay: multiplex, Neutravidin bead 70/60 without peptide, flow cytometry
[44] = biological target: Neutravidin (deglycosylated avidin) (UniProt P02701); assay: single-analyte, Neutravidin bead 70/60 without peptide, flow cytometry

Sequence of UniProt P01215 (P01215 25-116, chain 1 of 2, other chains not shown): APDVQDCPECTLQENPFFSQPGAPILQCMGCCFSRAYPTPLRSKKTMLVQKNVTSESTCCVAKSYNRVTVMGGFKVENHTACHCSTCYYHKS

MIF of Fm [1]: 1200
MIF of Fm (Alpha fetoprotein [2]): 61
MIF of Fm [3]: 761
MIF of Fm [4]: 650
MIF of Fm [5]: 3200
MIF of Fm (Alpha fetoprotein [6]): 75
MIF of Fm [7]: 359
MIF AVG [8]: 272
MIF of FL1 [8]: 268 and 276 and 271
MIF of Fm [9]: 3150
MIF of Fm [10]: 1300
MIF of Fm [11]: 1760
MIF of Fm [12]: 1290 and 1380
MIF AVG [13]: 272
MIF of FL1 [13]: 270 and 264 and 283
MIF of Fm [14]: 108
MIF of Fm [15]: 9230 and 9400
MIF of Fm [16]: 2950
Substance: AB633 affinity purified polyclonal anti-hCG antibody, Bodipy FL-CASE labeled

MIF of Fm [17]: 72
MIF of Fm (Alpha fetoprotein [18]): 1480
MIF of Fm [19]: 47
MIF AVG (Alpha fetoprotein [20]): 78
MIF of FL1 (Alpha fetoprotein [20]): 74 and 83 and 77
MIF of Fm (Alpha fetoprotein [21]): 35
MIF AVG (Alpha fetoprotein [22]): 363
MIF of FL1 (Alpha fetoprotein [22]): 351 and 365 and 372
Substance: M20077 affinity purified polyclonal anti-AFP antibody, Bodipy FL-CASE labeled

MIF (Peptide 8 …-biotin [23]): 31
MIF (Peptide 7 …-biotin [24]): 19
MIF (Peptide 9 …-biotin [25]): 31
MIF (Peptide 1 …-biotin [26]): 13
MIF (Peptide 2 …-biotin [27]): 17
MIF (Peptide 4 …-biotin [28]): 20
MIF (Peptide 6 …-biotin [29]): 32
MIF [30]: 915
MIF (Peptide 3 …-biotin [31]): 20
MIF of Fm [32]: 66
MIF (Peptide 8 …-biotin [33]): 34
MIF (Peptide 7 …-biotin [34]): 23
MIF (Peptide 9 …-biotin [35]): 36
MIF (Peptide 1 …-biotin [36]): 17
MIF (Peptide 2 …-biotin [37]): 19
MIF (Peptide 4 …-biotin [38]): 26
MIF (Peptide 6 …-biotin [39]): 20
MIF [40]: 1020
MIF (Peptide 3 …-biotin [41]): 22
MIF of Fm [42]: 47
MIF of Fm [43]: 23
MIF of Fm [44]: 70
Substance: MAB 384, Bodipy FL-X labeled (antibody)
